Assay results published in patent US20230322953A1 (HARBOUR BIOMED SHANGHAI, published 2023).
Substitutions are numbered along the chain they refer to. Names may count otherwise.

Tests used:
[1] = target: T1, human PD-L1 on cells (CHO-K1/hPDL1; MDA-MB-231) (human, UniProt Q9NZQ7 19-290); assay: competition FACS: biotinylated PD-1 to CHO-K1/hPDL1 cells
T1 construct: whole, on cells

[2] = target: T2, human CTLA4 on cells (CHO-K1/hCTLA4; HEK293/hCTLA4; 293F-hCTLA4) (human, UniProt P16410 36-223); assay: FACS, CHO-K1/hCTLA4 cells (Test 2)
T2 construct: whole, on cells
T2 sequence (P16410 36-223): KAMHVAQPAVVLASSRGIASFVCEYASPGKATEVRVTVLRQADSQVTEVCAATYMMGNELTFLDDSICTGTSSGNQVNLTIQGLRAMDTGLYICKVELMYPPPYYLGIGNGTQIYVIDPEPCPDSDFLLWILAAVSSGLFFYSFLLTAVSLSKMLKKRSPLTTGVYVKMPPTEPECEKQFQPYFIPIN

[3] = target: T2, human CTLA4 on cells (CHO-K1/hCTLA4; …); assay: competition FACS: biotinylated B7-1-Fc to CHO-K1/hCTLA4 cells (Test 2)
[4] = target: T1, human PD-L1 on cells (CHO-K1/hPDL1; …); assay: competition FACS: biotinylated PD-1 to CHO-K1/hPDL1 cells (Experiment 2)
[5] = target: T1, human PD-L1 on cells (CHO-K1/hPDL1; …); assay: FACS, CHO-K1/hPDL1 cells (Experiment 2)
[6] = target: T3, human PD-L1 (programmed death ligand 1) (human, UniProt Q9NZQ7 19-290); assay: flow cytometry (FACS) on CHO-K1/hPDL1 cells, Experiment 3
T3 construct: whole, on cells; also called hPDL1; CD274
T3 sequence (Q9NZQ7 19-290): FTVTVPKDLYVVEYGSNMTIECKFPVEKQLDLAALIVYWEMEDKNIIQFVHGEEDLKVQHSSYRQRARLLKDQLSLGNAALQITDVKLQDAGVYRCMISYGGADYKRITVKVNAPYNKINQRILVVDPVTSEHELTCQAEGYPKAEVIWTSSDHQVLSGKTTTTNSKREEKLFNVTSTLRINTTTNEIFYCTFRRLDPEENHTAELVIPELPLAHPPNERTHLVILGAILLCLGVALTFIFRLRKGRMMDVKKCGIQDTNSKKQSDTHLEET

cynomolgus monkey 4-1BB = target: T4, cynomolgus monkey 4-1BB (cynomolgus monkey); assay: flow cytometry (FACS) on CHO-K1/cyno 4-1BB cells, Experiment 1
T4 construct: whole, on cells; also called cyno 4-1BB

[7] = target: T3, human PD-L1 (programmed death ligand 1); assay: flow cytometry (FACS) on CHO-K1/hPDL1 cells, Experiment 1
[8] = target: T5, human CTLA4 on CHO-K1/hCTLA4 cells (human, UniProt P16410 36-223); assay: flow cytometry on CHO-K1/hCTLA4 cells, Experiment 1
T5 construct: whole, on cells; CHO-K1 cell line highly expressing human CTLA4; also called human CTLA4 cell
T5 sequence (P16410 36-223): as the sequence (P16410 36-223) above

human BCMA [9] = target: T6, human BCMA (human, UniProt Q02223 1-184); assay: FACS on HEK293T/hBCMA cells, Experiment 1
T6 construct: whole, on cells; also called hBCMA; TNFRSF17
T6 sequence (looked up): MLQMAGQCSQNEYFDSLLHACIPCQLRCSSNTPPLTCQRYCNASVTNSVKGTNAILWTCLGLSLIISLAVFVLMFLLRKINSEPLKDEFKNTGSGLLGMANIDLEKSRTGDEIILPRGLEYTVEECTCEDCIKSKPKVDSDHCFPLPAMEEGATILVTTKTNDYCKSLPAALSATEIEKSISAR

human BCMA [10] = target: T6, human BCMA; assay: FACS on NCI-H929 cells
cynomolgus monkey BCMA = target: T7, cynomolgus monkey BCMA (cynomolgus monkey, UniProt A0A2K5UD97 1-183); assay: FACS on HEK293T/cyno BCMA cells
T7 construct: whole, on cells; also called cyno BCMA
T7 sequence (A0A2K5UD97 entry or part of it): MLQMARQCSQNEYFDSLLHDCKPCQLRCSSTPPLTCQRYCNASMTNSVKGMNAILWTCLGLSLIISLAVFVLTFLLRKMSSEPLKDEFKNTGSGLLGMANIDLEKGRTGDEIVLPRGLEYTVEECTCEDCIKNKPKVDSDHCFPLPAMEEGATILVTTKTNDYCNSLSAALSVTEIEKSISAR

[11] = target: human 4-1BB (tumor necrosis factor receptor superfamily member 9) (human, UniProt Q07011 24-255); assay: cell-based or functional assay
Chain of human 4-1BB (tumor necrosis factor receptor superfamily member 9) (Q07011 24-255): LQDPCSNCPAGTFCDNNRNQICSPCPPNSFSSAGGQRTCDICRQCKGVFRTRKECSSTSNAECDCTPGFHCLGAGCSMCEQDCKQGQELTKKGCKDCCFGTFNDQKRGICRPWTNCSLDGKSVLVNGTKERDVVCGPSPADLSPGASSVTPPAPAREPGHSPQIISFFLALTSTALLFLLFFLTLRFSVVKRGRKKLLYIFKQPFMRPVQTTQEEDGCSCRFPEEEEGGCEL

T1 sequence (Q9NZQ7 19-290): as the sequence (Q9NZQ7 19-290) above

B1: PR001610 (bispecific antibody, human IgG1, kappa)
light: DIQMTQSPSTLSASVGDRVTVTCRASQSIYIWLAWYQQKPGKAPNLLIYKASSLETGVPSRFSGSGSGTEFTLTISSLQPDDFATYYCQQYYGSSRTFGQGTKVEIKRTVAAPSVFIFPPSDEQLKSGTASVVCLLNNFYPREAKVQWKVDNALQSGNSQESVTEQDSKDSTYSLSSTLTLSKADYEKHKVYACEVTHQGLSSPVTKSFNRGEC
heavy: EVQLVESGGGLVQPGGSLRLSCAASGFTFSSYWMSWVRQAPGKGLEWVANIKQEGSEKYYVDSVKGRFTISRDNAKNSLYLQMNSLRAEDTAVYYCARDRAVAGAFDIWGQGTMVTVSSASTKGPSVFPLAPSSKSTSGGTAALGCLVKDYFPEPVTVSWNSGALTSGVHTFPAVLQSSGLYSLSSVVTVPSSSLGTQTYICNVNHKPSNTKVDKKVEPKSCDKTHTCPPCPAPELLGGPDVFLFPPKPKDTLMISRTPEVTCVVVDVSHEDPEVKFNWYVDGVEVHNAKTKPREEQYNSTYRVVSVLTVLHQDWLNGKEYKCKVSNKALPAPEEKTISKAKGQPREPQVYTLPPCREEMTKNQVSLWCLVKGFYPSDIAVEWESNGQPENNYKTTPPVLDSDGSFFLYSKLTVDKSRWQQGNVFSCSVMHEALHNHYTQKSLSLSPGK
chain: EVQLVESGGGLIQPGGSLRLSCAVSGFTVSKNYMSWVRQAPGKGLEWVSVVYSGGSKTYADSVKGRFTISRDNSKNTLYLQMNSLRAEDTAVYYCARAVPHSPSSFDIWGQGTMVTVSSEPKSSDKTHTCPPCPAPELLGGPDVFLFPPKPKDTLMISRTPEVTCVVVDVSHEDPEVKFNWYVDGVEVHNAKTKPREEQYNSTYRVVSVLTVLHQDWLNGKEYKCKVSNKALPAPEEKTISKAKGQPREPQVCTLPPSREEMTKNQVSLSCAVKGFYPSDIAVEWESNGQPENNYKTTPPVLDSDGSFFLVSKLTVDKSRWQQGNVFSCSVMHEALHNHYTQKSLSLSPGK
notes: PD-L1×CTLA4, structure 11, knob/hole, DE
fold poorer IC50 than the parent monoclonal antibody [1]: 4 to 5 fold
Maximum MFI [2]: 468 MFI
IC50 [3]: 96.6 nM
Maximum inhibition rate (%) [3]: 61.3%
IC50 [4]: 1.23 nM
Maximum inhibition rate (%) [4]: 80.2%
EC50 [5]: 1.37 nM
Maximum MFI [5]: 11100 MFI

B2: PR007163, PD-L1×4-1BB bispecific antibody molecule of Fab-HCAb symmetric structure (bispecific antibody, human IgG1)
light: B1 light
chain: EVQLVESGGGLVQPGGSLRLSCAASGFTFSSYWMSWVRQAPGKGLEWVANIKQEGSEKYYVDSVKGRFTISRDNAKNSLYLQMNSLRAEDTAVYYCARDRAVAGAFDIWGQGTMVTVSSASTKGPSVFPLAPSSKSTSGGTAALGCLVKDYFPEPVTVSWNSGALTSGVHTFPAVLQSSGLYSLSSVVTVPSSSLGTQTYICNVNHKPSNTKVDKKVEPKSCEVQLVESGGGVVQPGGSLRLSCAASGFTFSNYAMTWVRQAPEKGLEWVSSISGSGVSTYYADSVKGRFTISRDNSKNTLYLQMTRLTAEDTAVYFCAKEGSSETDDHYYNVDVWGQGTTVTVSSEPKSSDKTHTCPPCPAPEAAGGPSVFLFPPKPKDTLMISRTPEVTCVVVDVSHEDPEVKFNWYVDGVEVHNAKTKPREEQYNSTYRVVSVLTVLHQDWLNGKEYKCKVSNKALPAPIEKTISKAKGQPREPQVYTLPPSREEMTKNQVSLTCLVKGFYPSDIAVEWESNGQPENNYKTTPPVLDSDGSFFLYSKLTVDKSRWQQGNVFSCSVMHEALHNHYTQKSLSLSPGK
notes: Structure 2 Fab(CH1)-VH-Fc; Fab of PR000265, VH of PR001760; no first linker, human IgG1 hinge (C220S); human IgG1 (L234A, L235A)
EC50 [6]: 2.26 nM
Maximum MFI [6]: 51300 MFI

B3: PR003550, PD-L1×4-1BB bispecific antibody molecule of IgG-VH tetravalent symmetric structure (bispecific antibody)
light: B1 light
heavy: EVQLVESGGGLVQPGGSLRLSCAASGFTFSSYWMSWVRQAPGKGLEWVANIKQEGSEKYYVDSVKGRFTISRDNAKNSLYLQMNSLRAEDTAVYYCARDRAVAGAFDIWGQGTMVTVSSASTKGPSVFPLAPSSKSTSGGTAALGCLVKDYFPEPVTVSWNSGALTSGVHTFPAVLQSSGLYSLSSVVTVPSSSLGTQTYICNVNHKPSNTKVDKKVEPKSCDKTHTCPPCPAPEAAGGPSVFLFPPKPKDTLMISRTPEVTCVVVDVSHEDPEVKFNWYVDGVEVHNAKTKPREEQYNSTYRVVSVLTVLHQDWLNGKEYKCKVSNKALGAPIEKTISKAKGQPREPQVYTLPPSREEMTKNQVSLTCLVKGFYPSDIAVEWESNGQPENNYKTTPPVLDSDGSFFLYSKLTVDKSRWQQGNVFSCSVMHEALHNHYTQKSLSLSPGEPKSSDKTHTPPPPPRTEVQLVESGGGVVQPGGSLRLSCAASGFTFSNYAMTWVRQAPEKGLEWVSSISGSGVSTYYADSVKGRFTISRDNSKNTLYLQMTRLTAEDTAVYFCAKEGSSETDDHYYNVDVWGQGTTVTVSS
notes: Structure 5; IgG PR000265, VH of PR001760 at C-terminus of heavy chain; linker H1_15-RT; human IgG1 (L234A, L235A, P329G)
EC50 (cynomolgus monkey 4-1BB): 1.32 nM
Maximum MFI (cynomolgus monkey 4-1BB): 5360 MFI
EC50 [7]: 1.11 nM
Maximum MFI [7]: 2250 MFI

B4: HER2xCTLA4 bispecific antibody molecule PR000916 (bispecific antibody, human IgG1, kappa)
light: not shown
heavy: not shown
chain: B1 chain with D143S, E236I
notes: Structure 11 Fab-Fc-VH (bivalent asymmetric); PR000210 Fab (normal), one PR000184 VH
EC50 [8]: 4.68 nM
Maximum MFI [8]: 151 MFI

B5: HER2xCTLA4 bispecific antibody molecule PR000917 (bispecific antibody, human IgG1, kappa)
light: not shown
heavy: not shown
chain: B1 chain
notes: Structure 11 Fab-Fc-VH; PR000210 Fab (normal), one PR000184 VH; DE: S239D, I332E
EC50 [8]: 9.8 nM
Maximum MFI [8]: 142 MFI

B6: PR007164, PD-L1×4-1BB bispecific antibody molecule of Fab-HCAb symmetric structure (bispecific antibody, human IgG1)
chain 1: EVQLVESGGGLVQPGGSLRLSCAASGFTFSSYWMSWVRQAPGKGLEWVANIKQEGSEKYYVDSVKGRFTISRDNAKNSLYLQMNSLRAEDTAVYYCARDRAVAGAFDIWGQGTMVTVSSASTKGPSVFPLAPSSKSTSGGTAALGCLVKDYFPEPVTVSWNSGALTSGVHTFPAVLQSSGLYSLSSVVTVPSSSLGTQTYICNVNHKPSNTKVDKKVEPKSC
chain 2: not shown
notes: Structure 1 Fab(CL)-VH-Fc; Fab of PR000265, VH of PR001760; no first linker, human IgG1 hinge (C220S); human IgG1 (L234A, L235A)
EC50 [6]: 1.93 nM
Maximum MFI [6]: 51400 MFI

B7: PR002929 (bispecific antibody, human IgG1, lambda, L234A L235A)
light: QAVVTQEPSLTVSPGGTVTLTCRSSTGAVTTSNYANWVQQKPGQAPRGLIGGTNKRAPWTPARFSGSLLGDKAALTLLGAQPEDEAEYFCALWYSNLWVFGGGTKLTVLGQPKAAPSVTLFPPSSEELQANKATLVCLISDFYPGAVTVAWKADSSPVKAGVETTTPSKQSNNKYAASSYLSLTPEQWKSHRSYSCQVTHEGSTVEKTVAPTECS
heavy: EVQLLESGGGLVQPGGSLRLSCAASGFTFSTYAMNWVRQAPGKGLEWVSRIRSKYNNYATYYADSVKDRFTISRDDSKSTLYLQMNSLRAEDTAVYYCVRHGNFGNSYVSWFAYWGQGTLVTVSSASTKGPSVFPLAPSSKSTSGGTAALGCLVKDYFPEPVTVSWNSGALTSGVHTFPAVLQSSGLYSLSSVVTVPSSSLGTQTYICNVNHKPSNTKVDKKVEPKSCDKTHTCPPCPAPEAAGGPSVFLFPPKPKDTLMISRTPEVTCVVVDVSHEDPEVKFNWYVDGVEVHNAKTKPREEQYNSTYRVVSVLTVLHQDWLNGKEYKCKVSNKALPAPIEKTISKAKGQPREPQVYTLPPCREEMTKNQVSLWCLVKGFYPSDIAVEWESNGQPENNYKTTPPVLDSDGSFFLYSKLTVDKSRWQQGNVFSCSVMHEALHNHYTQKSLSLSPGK
chain: EVQLVETGGGLIQPGGSLRLSCAASGFTVSDNYMTWVRQAPGKGLEWVSVIFSGGNTYYADSVKGRFTISRDNAKNTLYLQMNSLRAEDTALYYCARRNYDDTRGTDVFDIWGQGTMVTVSSASEPKSSDKTHTCPPCPAPEAAGGPSVFLFPPKPKDTLMISRTPEVTCVVVDVSHEDPEVKFNWYVDGVEVHNAKTKPREEQYNSTYRVVSVLTVLHQDWLNGKEYKCKVSNKALPAPIEKTISKAKGQPREPQVCTLPPSREEMTKNQVSLSCAVKGFYPSDIAVEWESNGQPENNYKTTPPVLDSDGSFFLVSKLTVDKSRWQQGNVFSCSVMHEALHNHYTQKSLSLSPGK
EC50 (human BCMA [9]): 9.02 nM
Maximum MFI (human BCMA [9]): 17600
EC50 (human BCMA [10]): 50.2 nM
Maximum MFI (cynomolgus monkey BCMA): 13800

B8: PR001990 (bispecific antibody, human IgG1, lambda, L234A L235A)
light: B7 light
heavy: EVQLLESGGGLVQPGGSLRLSCAASGFTFNTYAMNWVRQAPGKGLEWVSRIRSKYNNYATYYADSVKDRFTISRDDSKSTLYLQMNSLRAEDTAVYYCVRHGNFGNSYVSWFAYWGQGTLVTVSSASTKGPSVFPLAPSSKSTSGGTAALGCLVKDYFPEPVTVSWNSGALTSGVHTFPAVLQSSGLYSLSSVVTVPSSSLGTQTYICNVNHKPSNTKVDKKVEPKSCDKTHTCPPCPAPEAAGGPSVFLFPPKPKDTLMISRTPEVTCVVVDVSHEDPEVKFNWYVDGVEVHNAKTKPREEQYNSTYRVVSVLTVLHQDWLNGKEYKCKVSNKALGAPIEKTISKAKGQPREPQVYTLPPCREEMTKNQVSLWCLVKGFYPSDIAVEWESNGQPENNYKTTPPVLDSDGSFFLYSKLTVDKSRWQQGNVFSCSVMHEALHNHYTQKSLSLSPGK
chain: B7 chain with P238G
Maximum MFI (human BCMA [9]): 13400
Maximum MFI (human BCMA [10]): 1840
Maximum MFI (cynomolgus monkey BCMA): 9170

B9: PR002935 (bispecific antibody, human IgG1, lambda, L234A L235A)
light: B7 light
heavy: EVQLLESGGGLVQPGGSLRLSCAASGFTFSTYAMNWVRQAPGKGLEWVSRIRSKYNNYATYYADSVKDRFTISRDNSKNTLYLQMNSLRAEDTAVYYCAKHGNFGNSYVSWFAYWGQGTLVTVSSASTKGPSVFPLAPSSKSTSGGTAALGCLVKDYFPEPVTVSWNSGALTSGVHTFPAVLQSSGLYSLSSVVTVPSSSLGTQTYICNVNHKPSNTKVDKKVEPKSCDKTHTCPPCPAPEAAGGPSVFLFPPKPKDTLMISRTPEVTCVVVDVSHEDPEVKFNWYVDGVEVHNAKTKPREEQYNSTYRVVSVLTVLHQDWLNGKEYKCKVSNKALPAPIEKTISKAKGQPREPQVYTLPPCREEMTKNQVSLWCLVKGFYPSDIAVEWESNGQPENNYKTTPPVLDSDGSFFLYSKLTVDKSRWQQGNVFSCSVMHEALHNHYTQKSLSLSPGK
chain: B7 chain
EC50 (human BCMA [9]): 14.8 nM
Maximum MFI (human BCMA [9]): 23900
Maximum MFI (human BCMA [10]): 3840
Maximum MFI (cynomolgus monkey BCMA): 22000

B10: Anti-4-1BB monoclonal antibody urelumab analog, hIgG4 (S228P) (antibody, V domains shown)
VH: QVQLQQWGAGLLKPSETLSLTCAVYGGSFSGYYWSWIRQSPEKGLEWIGEINHGGYVTYNPSLESRVTISVDTSKNQFSLKLSSVTAADTAVYYCARDYGPGNYDWYFDLWGRGTLVTVSS
VL: EIVLTQSPATLSLSPGERATLSCRASQSVSSYLAWYQQKPGQAPRLLIYDASNRATGIPARFSGSGSGTDFTLTISSLEPEDFAVYYCQQRSNWPPALTFGGGTKVEIKR
IFN-γ EC50 (nM), T cells with MDA-MB-231 target cells [11]: 0.536 nM
IL-2 EC50 (nM), T cells with MDA-MB-231 target cells [11]: 2.94 nM
